{"source": "patent EP3057986B1", "biological_target": "CD16V-BB-ζ chimeric receptor (human)", "assay": "cell-based or functional assay"}
{"substance": "hu14.18K322A (antibody)", "values": [{"measurement": "24-hour cytotoxicity against NB1691 cells at 1:8 E:T", "result": "> 50", "unit": "%"}]}
